Experimental data from IntAct's records for PubMed 14625560.

B1: Cell cycle serine/threonine-protein kinase hsk1 (Schizosaccharomyces pombe (strain ATCC 38366 / 972)), P50582 (parent)
chain: MAEAHITLSPKVTHEQQTDIDSECEITEVDDENVNENKSQEMIQDIPARDREEIENITRTFVELQENYRLIEKIGEGTFSSVYKAEDLHYGRYINDWDIQSEVLKESSFGKEKIPVNEDSRKPKYVAIKKIYATSSPARIYNELEILYLLRGSSVIAPLITALRNEDQVLVVLPYYEHTDFRQYYSTFSYRDMSIYFRCLFQAMQQTQTLGIIHRDIKPSNFLFDVRTKHGVLVDFGLAERYDGRQQSHSCRCTNSNAAELAHDFSIAQETSLGYIKNDTRPSKRANRAGTRGFRAPEVLFKCSSQSPKVDIWSAGVILLSFLTKRFPMFNSKDDVDALMEIACIFGKSEMRQCAALHGCTFETNVSTLTEKRVNFRKLILWASCGSASIYKEKLRHKPSQEERLCLDFLEKCLELDCNKRISAEEALDHDFLYLDNLAYEKKDDDTAFDNSFGETSFEKDEDLTAKHLSHILDFKEQEETDEPTSLSKRKRSIDEILPNDALQDGA
partner: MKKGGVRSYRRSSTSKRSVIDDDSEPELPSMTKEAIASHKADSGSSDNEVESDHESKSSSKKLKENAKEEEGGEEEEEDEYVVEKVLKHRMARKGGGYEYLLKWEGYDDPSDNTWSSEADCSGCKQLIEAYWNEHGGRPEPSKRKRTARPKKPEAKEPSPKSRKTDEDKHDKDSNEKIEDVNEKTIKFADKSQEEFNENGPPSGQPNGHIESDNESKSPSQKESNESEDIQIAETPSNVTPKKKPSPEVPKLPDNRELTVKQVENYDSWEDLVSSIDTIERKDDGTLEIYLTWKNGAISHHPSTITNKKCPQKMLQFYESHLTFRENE

Variants of: B1
Details: with swi6_schpo swi6, P40381

Variant	effect of a mutation on the interaction
S314I	decreasing interaction
